Data published in patent US20230272097A1 (PETMEDIX, published 2023).
Residue numbers refer to the chain shown, from its start.

T1: canine OX40L, full length membrane form, expressed on the cell surface (HEK293 or MEF cells stably … (canine (dog, beagle)))
T1 construct: The same protein is used on HEK293 and on MEF cells; also called HEK-OX40L; OX40L expressing HEK293 cells
T1 chain: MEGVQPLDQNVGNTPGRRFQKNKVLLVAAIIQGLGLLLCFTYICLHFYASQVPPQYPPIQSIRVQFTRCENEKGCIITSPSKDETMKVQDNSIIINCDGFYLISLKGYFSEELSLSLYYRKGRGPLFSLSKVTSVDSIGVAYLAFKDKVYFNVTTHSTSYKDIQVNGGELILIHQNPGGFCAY

B1: PMX 024 (antibody, V domains shown)
VH: EVLLMESGGDLVKPGGSLRLSCVASGFTFSSNYMYWIRQAPGKGLQWVSQISGDGSFTNYADAVKGRFTISRDNAKNTLYLQMNSLRDEDTAVFYCASGIYPNAFGYWGQGTLVTVSS
VL: SYVLTQPPSKNVTLKQPAHITCGGDNIGSKSVHWYQQKLGQAPVLIIYYDSSRPTGIPERFSGANSGNTATLTISGALAEDEADYYCQVRDSSANVFGGGTHLTVL
notes: anti-canine OX40L candidate
B2: PMX 015 (antibody, V domains shown)
V domain 1: EVQLVESGGDLVKPGGSLRISCVASGFTFSYYHMSWVRQAPGKGLQWVAYINSGGFSTNYADAVKGRCSISRDNGKNTLYLQMNSLRPEDTGVYYCASESRWGDSYSGMTYWGHGTSLFVSS
V domain 2: SYVLTQLPSKNVTLKQPAHITCGGDNIGSKSVHWYQQKLGQAPVLIIYYDNSRPTGIPERFSGAKSGNTATLTISGALAEDEADYYCQVWDSSAKASVFGGGTHLTVL
notes: anti-canine OX40L candidate
B3: PMX020 formulated in canine IgGB Def2 backbone (antibody)
heavy: EVQLVESGGDLVKPGGSLRISCVASGFTFSSYHMNWVRQAPGKGLQWVAHISSGGTFTSYADAVKGRFTISRDNAKNTLYLQMISLRAEDTAVYYCASGLFLVVGGGNYWGRGTLVTVSSASTTAPSVFPLAPSCGSTSGSTVALACLVSGYFPEPVTVSWNSGSLTSGVHTFPSVLQSSGLYSLSSMVTVPSSRWPSETFTCNVAHPASKTKVDKPVPKRENGRVPRPPDCPKCPAPESLGGPSVFIFPPKPKDTLLIARTPEVTCVVVDLGREDPEVQISWFVDGKQMQTAKTQPREEQFNGTYRVVSVLPIGHQDWLKGKQFTCKVNHIGLPSPIERTISKARGQAHQPSVYVLPPSREELSKNTVSLTCLIKDFFPPDIDVEWQSNGQQEPESKYRTTPPQLDEDGSYFLYSKLSVDKSRWQRGDTFICAVMHEALHNHYTQKSLSHSPGK
light: B1 VL with P7L, Y49S, R90W, N95S
notes: also called PMX020 Def2; not shown: light chain constant region (human kappa, or canine kappa or lambda)
B4: PMX020 formulated in canine IgGB Def7 backbone (antibody)
heavy: B3 heavy with S240A, L241A, G273D, R274P, H331N, I332K, G333A, P335G
light: B1 VL with P7L, Y49S, R90W, N95S
notes: also called PMX020 Def7; not shown: light chain constant region (human kappa, or canine kappa or lambda)
B5: PMX014 formulated in canine IgGB Def2 backbone (antibody)
heavy: EVQLVESGGDLVKPGGSLRLSCVASGFTFSNFHMSWVRQAPGKGLQWVAYINSGGFNINYEDAVRGRFTISRDNAKNTLYLQMNSLRAEDTAIYYCARDWDTHLDTNWFYYWGQGTLVTVSSASTTAPSVFPLAPSCGSTSGSTVALACLVSGYFPEPVTVSWNSGSLTSGVHTFPSVLQSSGLYSLSSMVTVPSSRWPSETFTCNVAHPASKTKVDKPVPKRENGRVPRPPDCPKCPAPESLGGPSVFIFPPKPKDTLLIARTPEVTCVVVDLGREDPEVQISWFVDGKQMQTAKTQPREEQFNGTYRVVSVLPIGHQDWLKGKQFTCKVNHIGLPSPIERTISKARGQAHQPSVYVLPPSREELSKNTVSLTCLIKDFFPPDIDVEWQSNGQQEPESKYRTTPPQLDEDGSYFLYSKLSVDKSRWQRGDTFICAVMHEALHNHYTQKSLSHSPGK
light: B2 V domain 2 with P17S, G23R, N51S, K65N, S92I
notes: also called PMX014 Def2; not shown: light chain constant region (human kappa, or canine kappa or lambda)
B6: PMX014 formulated in canine IgGB Def7 backbone (antibody)
heavy: B5 heavy with S242A, L243A, G275D, R276P, H333N, I334K, G335A, P337G
light: B2 V domain 2 with P17S, G23R, N51S, K65N, S92I
notes: also called PMX014 Def7; not shown: light chain constant region (human kappa, or canine kappa or lambda)
B7: PMX019 (antibody, V domains shown)
VH: B1 VH with L3Q, M5V, Y35S, S56I, F57Y, V64M, V93L, F94Y, S98T
VL: B1 VL with P7L, P8S, R90W
notes: Canine variable regions; also called PMX19
B8: PMX020 (antibody, V domains shown)
VH: EVQLVESGGDLVKPGGSLRISCVASGFTFSSYHMNWVRQAPGKGLQWVAHISSGGTFTSYADAVKGRFTISRDNAKNTLYLQMISLRAEDTAVYYCASGLFLVVGGGNYWGRGTLVTVSS
VL: B1 VL with P7L, Y49S, R90W, N95S
notes: Canine variable regions
B9: PMX013 (antibody, V domains shown)
VH: ELTLQESGPGLVKPSQTLSLTCVVSGGSVTSSHYWNWIRQRPGRGLEWMGSWTGGTNYNPAFQGRISVTSDTAKNQFSLQLSSLTTEDTAVYYCARGGGYSGTWKDYYVMDYWGHGTSVIVSS
VL: B2 V domain 2 with K15N, I27L, Y49F, N51T, K65N
notes: Canine variable regions
B10: PMX017 (antibody, V domains shown)
V domain 1: EVQLVESGGDLVKPGGSLRLSCVASGFTFSSYHMSWVRQAPGKGLQWVAYIASGGTVTTYADAVRGRFTISRDNAKNMLYLQMNSLRAEDSAVYYCTRWKGGTFGYGMDYWGHGTSLFVSS
V domain 2: B2 V domain 2 with S52N, T55A, K65N
notes: Canine variable regions
B11: PMX016 (antibody, V domains shown)
VH: EVQLVESGGDLVKPGGSLRLSCVASGFTFSNYHMNWVRQAPGKGLQWVAYITSDGIVSSYADVVKGRFTISRDNAKNTLFLQMNSLRAEDTAVYYCASGLFLVVGGGTFWGQGTLVTVSS
VL: B2 V domain 2 with Y49S, N51S, K65N
notes: Canine variable regions
B12: PMX018 (antibody, V domains shown)
VH: B11 VH with S53N, V63A, F80Y, A88V
VL: B2 V domain 2 with Q37H, N51S, K65N
notes: Canine variable regions

Molecular target: T1, canine OX40L, full length membrane …
Assay: flow cytometry, single dose, OX40L expressing HEK293 cells against the parental line, fluorescently labelled secondary antibody
Description: CHO cells supernatants containing candidate antibodies are diluted to 1, 5 or 10 μg/ml in FACS buffer (PBS containing 3% FBS) and screened for their ability to bind canine OX40L proteins expressed on cell surface. In brief, HEK293 or MEF cells (or any other commonly used cell lines) expressing canine OX40L at the cell surface are incubated with 100 μl of FACS buffer containing the candidate antibody for 30′ on ice. As a control the parental cell line (HEK293 or MEF cells not expressing OX40L) is also stained with the same antibody solution. After staining, cells are washed with 150 μl FACS buffer followed by centrifugation at 300 g for 3 min. Supernatant is removed, and the cell pellet is resuspended in FACS buffer containing a 1:1000 dilution of a fluorescently labelled secondary antibody recognising the human or canine Fc region of the test antibody for 30 min in the dark, followed by washing with 150 μl FACS buffer and centrifugation at 300 g for 3 mins. Cells are resuspended in FACS buffer and flow cytometry performed using either a […] cytometer, followed by data analysis using FlowJo (FIG. 8).

binding result | Binder
binds | B1
binds | B2

Molecular target: T1, canine OX40L, full length membrane …
Assay: flow cytometry titration on HEK cells expressing OX40L; Kd (EC50), Prism
Description: FIG. 12. Affinity determination for antibodies that bind OX40L formulated in canine IgGB Def2 and Def7 backbones. The experiment was performed using HEK cells expressing OX40L. Graphs are generated by plotting GeoMean arbitrary units (AU) values against Log₁₀ [concentration]. Kd (EC₅₀) was calculated using Prism.
(§1) Specific binding to cells expressing OX40L is confirmed by purifying mAb from the CHO supernatant using protein A resin (MabSelect, Cytiva). In brief, MabSelect resin is washed in PBS and diluted to have a 10% slurry. An appropriate volume of the 10% slurry is added to the supernatant and incubated 5-10′ at RT before being loaded into a filter column. After 3 washes with PBS the antibodies are eluted using IgG elute buffer (Pierce) directly into neutralisation buffer (10 mM TRIS pH8.0), 8:1 IgG elute: neutralisation buffer ratio. Antibody solutions are quantified measuring absorbance at 280 nm, using a Nanodrop One (Thermo Fisher). Serial 1:3 dilutions of purified antibodies ranging from 6.6 μM to 66 pM are prepared in FACS buffer and are used to stain HEK293 or MEF cells (or any other commonly used cell lines) expressing canine OX40L.

Kd | Binder
45.4 nM | B3
58.1 nM | B4
74.6 nM | B5
74.2 nM | B6

Molecular target: T1, canine OX40L, full length membrane …
Assay: flow cytometry titration on HEK cells expressing OX40L; Kd (EC50) from GeoMean vs concentration, Prism four parameter fit
Description: FIG. 10. Affinity determination for antibodies that bind OX40L on HEK cells expressing OX40L. Graphs are generated by plotting GeoMean arbitrary units (AU) against Log₁₀ [concentration]. Kd (EC₅₀) was calculated using Prism.
as §1

Kd | Binder
4.49 nM | B7
2.8 nM | B8
165 nM | B9
30 nM | B10
37.4 nM | B11
23.6 nM | B12

Molecular target: T1, canine OX40L, full length membrane …
Assay: flow cytometry titration on MEF cells expressing OX40L; Kd (EC50) from GeoMean vs concentration, Prism four parameter fit
Description: FIG. 11. Affinity determination for antibodies that bind OX40L on MEF cells expressing OX40L. Graphs are generated by plotting GeoMean arbitrary units (AU) against Log₁₀ [concentration]. Kd (EC₅₀) was calculated using Prism.
as §1

Kd | Binder
38.3 nM | B7
0.71 nM | B8
22.7 nM | B9
10.7 nM | B10
108 nM | B11
